The assay addresses K63 diubiquitin (K63 diUb). Nature of the assay: SPR, p62 immobilised on CM5 chip. Background: In SPR one partner is held on a chip, and binding of the other changes the refractive index at the surface.

As to “p62/SQSTM1 (sequestosome-1) 320-436 (from UniProt Q13501) p62 2Pi (pS403/pS407)”, the KD entry is given as “stronger; reference 4.4 ± 0.4 μM” (reference: p62S403Pi (monophosphorylated), sites S407) and “stronger; reference 14.8 ± 1.0 μM” (reference: p62S407Pi (monophosphorylated), sites S403). With “p62/SQSTM1 (sequestosome-1) 320-436 (from UniProt Q13501) semisynthetic p62 2Pi (pS403/pS407)”, the KD entry (reference: recombinant p62 WT, unphosphorylated, sites S403,S407) is given as “stronger; reference 167.9 ± 13.0 μM”.

The values are drawn from article PMC5636944.
